Data on four substances can be found in publication PMC5397179.

Data set [1] has as its system PcrA-sCt (C-terminal Tudor-like domain) (Geobacillus stearothermophilus). Briefly: EMSA. As to conditions: no binding detected up to 5 uM; 2.5 mM Mg2+; EMSA: 50 nM (so in the source) HEPES-KOH pH 7.5, 100 mM KCl, 2.5 mM MgCl2, 0.1 mg/mL BSA, 1 mM (reagent truncated in material); 20 nM DNA; TBE-PAGE; temperature not ….
The next data set concerns the target RNAP subunit β'. As to the kind of experiment: pulldown quantified by mass spectrometry. As to conditions: parent: est. 12; read off a plot.
A further data set has as its target RNAP subunit ω. Briefly: pulldown quantified by mass spectrometry. As to conditions: parent: est. 13; read off a plot.
The target of the next data set is RNAP subunit α. Briefly: pulldown quantified by mass spectrometry. As to conditions: parent: est. 6.2; read off a plot.
A further data set deals with RNAP subunit β. As to the kind of experiment: pulldown quantified by mass spectrometry. As to conditions: parent: est. 16; read off a plot.
A further data set deals with RNAP subunit δ. Briefly: pulldown quantified by mass spectrometry. As to conditions: parent: est. 12; read off a plot.

A value given as a limit tells only on which side of the number the result lay.

By Kd is commonly meant the free concentration of one partner at which half of the binding sites on the other are occupied at equilibrium, for simple one-to-one binding. 147 base ssDNA oligonucleotide gave a Kd in data set [1] of more than 5 µM.

In data set [1], 147 bp dsDNA showed a Kd of more than 5 µM.

In the case of “Biotinylated full length PcrA (Geobacillus stearothermophilus), wild type (from UniProt P56255) K712A”, the other: Relative Ion Score came out at 3.6 in the data set with RNAP subunit β'; 4.7 with RNAP subunit ω; 2.7 in the data set with RNAP subunit α; 4.5 with RNAP subunit β; 3.1 in the data set with RNAP subunit δ.

With “Biotinylated full length PcrA (Geobacillus stearothermophilus), wild type (from UniProt P56255) L714A”, the other: Relative Ion Score with RNAP subunit β' worked out at 2.8; in the data set with RNAP subunit ω it was 2.6; with RNAP subunit α, 2.7; in the data set with RNAP subunit β, 4.1; in the data set with RNAP subunit δ, 3.6.
